The values below come from patent US20160068822A1.

One test addresses TALE(KLF4)-NLS-CRY2PHR. Put plainly: cell-based or functional assay.
The target in another test is TALE(Ngn2)-NLS-CRY2PHR. Put plainly: cell-based or functional assay.

Substance CIB1-NLS-VP64-2A_GFP had a KLF4 mRNA upregulation, saturated at 5 mW/cm2 (HEK293FT cells) with TALE(KLF4)-NLS-CRY2PHR of 2.3 fold. For the same substance, in the test with TALE(Ngn2)-NLS-CRY2PHR, the Neurog2 expression peak at 12 h of light stimulation is 19 fold, the Neurog2 mRNA level 0.5 h after the end of a 6 h stimulation worked out at 16 fold and the upregulation of Neurog2 expression at 0.5 h of light stimulation worked out at 5 fold.
